Measured values reported in patent US20260176336A1 (MESTAG THERAPEUTICS, published 2026).

Columns and labels:
[1] = target: T1, human LTBR endogenously expressed on cells (HepG2, A549, A375, HCC1187, RPMI-7951, primary human breast CAFs) (human, UniProt P36941 31-435); assay: cell-based or functional assay
[2] = target: T1, human LTBR endogenously expressed on …; assay: cell-based or functional assay; remark: listed apart in the source
[3] = target: T1, human LTBR endogenously expressed on …; assay: cell-based or functional assay; remark: listed apart in the source
[4] = target: T1, human LTBR endogenously expressed on …; assay: cell-based or functional assay; remark: listed apart in the source
[5] = target: T1, human LTBR endogenously expressed on …; assay: cell-based or functional assay; remark: listed apart in the source
[6] = target: T1, human LTBR endogenously expressed on …; assay: flow cytometry, A375 cells
[7] = target: T2, human FAP expressed on cells (transfected HEK293; FAP-CHO-K1 recombinant cell line, BPS cat no. 79947) (human, UniProt Q12884 1-760); assay: flow cytometry, HEK293-FAP overexpressing cells
T2 construct: also called HuFAP-HEK293; Hek-FAP

[8] = target: Human LTBR (Acro), recombinant protein (human, UniProt P36941 31-227, limits assumed); assay: SPR (Carterra LSA) as in Example 2.6, antibody captured, LTBR as analyte
Method: (§1) The binding of anti-LTBR antibodies to human and cynomolgus LTBR was investigated by Surface Plasmon Resonance (SPR) on Carterra LSA. An EC30M chip was used to capture the test antibodies. Activation with EDC and sNHS occurred in MES pH 5.5 to prepare the chip for amine coupling. Goat anti-human IgG Fc antibody was then captured to the chip via incubation for 10 minutes. Excess conjugation sites were quenched with 1M Ethanolamine pH 8. To measure monovalent binding kinetics, antibodies were printed/spotted onto the chip and allowed to bind to the goat antibody, followed by subsequent washing. After the preparation, the printed chip was exposed to repeated rounds of association and dissociation with increasing analyte concentrations. In this work, recombinant proteins (Human LTBR (Acro) or cyno LTBR His (R&D)) were serially diluted across a range starting at 1500 nM with 3-fold dilutions and 10 points. The curves were fitted to global fit in a 1:1 binding model to obtain KD values. The binding affinity to both species is reported.

[9] = target: T3, cyno LTBR His (R&D), recombinant protein (cynomolgus (Macaca fascicularis), UniProt P36941 31-227 (human entry), limits assumed); assay: as above
T3 construct: bought protein used as analyte on Carterra LSA
Method: as §1

[10] = target: Human FAP (Acro), recombinant protein (human, UniProt Q12884 26-760); assay: SPR (Carterra LSA) as in Example 3.6, antibody captured, FAP as analyte; * value outside instrument specifications
Method: (§2) Binding of anti-FAP antibodies to human and cynomolgus FAP was investigated by Surface Plasmon Resonance (SPR) on Carterra LSA. An EC30M chip was used to capture the test antibodies. The chip was activated for bioconjugation using EDC and sNHS in MES pH 5.5 to prepare the chip for amine coupling. Goat anti-human IgG Fc antibody was then captured to the chip via incubation for 10 minutes. Excess conjugation sites were quenched with 1M Ethanolamine pH 8. To measure monovalent binding kinetics, antibodies were printed/spotted onto the chip and allowed to bind to the goat antibody, followed by subsequent washing. After the preparation, the printed chip was exposed to repeated rounds of association and dissociation with increasing analyte concentrations. In this work, recombinant proteins (Human FAP (Acro) or cyno FAP His (Acro)) were serially diluted across a range starting at 1500 nM with 3-fold dilutions and 10 points. The curves were fitted to global fit in a 1:1 binding model to obtain KD values. The binding affinity to both human and cynomolgus FAP is reported in.

[11] = target: T4, cyno FAP His (Acro), recombinant protein (cynomolgus (Macaca fascicularis), UniProt Q12884 26-760 (human entry)); assay: as above
T4 construct: bought protein used as analyte on Carterra LSA
Method: as §2

[12] = target: T1, human LTBR endogenously expressed on …; assay: flow cytometry, A549 cells
Method: (§3) In short, 1×10⁶ cells were resuspended in the FACS buffer (1% BSA, 0.1% Sodium Azide in PBS), and 50 μl was added to each well (5×10⁴ cells/well) of a 96-U bottom plate. The cells were washed once and resuspended in 50 μl/well of FACS buffer containing a 1:3, 11-point series dilutions of constructs 4.1-4.6 and clones 4.8-4.9 followed by 1 h incubation at 4° C. […] Next, cells were washed and resuspended in FACS buffer and read on Beckman Coulter CytoFLEX. The data were analysed using FloJo V10 and GraphPad Prism v9. Clone 4.7 was tested for binding to A375 (LTBR positive cell line) and the HEK293-FAP overexpressing cell line, as described in examples 2.4 and 3.5. The EC50 values can be found in.

[13] = target: T2, human FAP expressed on cells …; assay: flow cytometry, FAP-CHO-K1 cells
Method: as §3

[14] = target: T5, Biotinylated hLTBR-His-Avitag (Acro, cat no LTR-H82E9-25 µg) (human, UniProt P36941 31-227, biotinylated (Avitag)); assay: BLI (Octet), biotinylated LTBR on SA sensor, antibody as analyte
T5 construct: bought protein loaded on SA Streptavidin biosensors
Method: Briefly, Biotinylated hLTBR-His-Avitag (Acro, cat no LTR-H82E9-25 μg) was loaded on SA Streptavidin biosensors (Fortebio) in kinetics buffer (ForteBio) followed by a 2-fold dilution series starting at 50 nM of FAP/LTBR bispecific antibodies. Binding kinetics were studied in a 1× Kinetics buffer where the association was allowed for 100 seconds, followed by dissociation for 300 seconds. Data generated were referenced by subtracting a parallel buffer blank, the baseline was aligned with the y-axis, inter-step correlation by alignment against dissociation was performed, and the data were smoothed by a Savitzky-Golay filter in the data analysis software. The processed data were fitted using a 1:1 Langmuir binding model with R\hat{ }2 as a measurement of fitting accuracy. The KD and R\hat{ }2 values can be found in.

[15] = target: cynomologus recombinant LTBR (Octet, Example 4.8) (cynomolgus (Macaca fascicularis), UniProt P36941 31-227 (human entry), limits assumed); assay: BLI (Octet), cyno LTBR immobilised on ARG sensor, antibody at 25 nM
Method: A 2-fold series dilution starting at 50 nM of cynomologus recombinant LTBR was immobilised on the surface of ARG biosensors (Fortebio), followed by FAP/LTBR bispecific at 25 nM. Binding kinetics were studied in a 1× Kinetics buffer where the association was allowed for 180 seconds, followed by dissociation for 100 seconds. Sensor tips were regenerated using ethylene glycol. Data generated were referenced by subtracting a parallel buffer blank, the baseline was aligned with the y-axis, inter-step correlation by alignment against dissociation was performed, and the data were smoothed by a Savitzky-Golay filter in the data analysis software. The processed data were fitted using a 1:1 Langmuir binding model with R\hat{ }2 as a measurement of fitting accuracy. The KD values can be found in.

[16] = target: T6, human FAP (Acro, cat no FAP-H82Q6) (human, UniProt Q12884 26-760); assay: BLI (Octet), antibody captured by anti-Fc, FAP as analyte; * value outside instrument specifications; avid binding to dimeric FAP; value flagged as outside instrument specifications
T6 construct: 'FAP is naturally a dimeric antigen'
Method: Binding to recombinant FAP proteins was investigated by Bio-Layer Interferometry (BLI) using the Octet instrument. Using standard amine coupling chemistry, an anti-Fc antibody was immobilised on the surface of ARG biosensors (Fortebio). The FAP/LTBR bispecific antibodies were loaded on the previously coated surface with anti-Fc capture antibody, followed by a 2-fold series dilution starting at 50 nM of either cyno FAP (Acro, cat no FAP-C82Q5) or human FAP (Acro, cat no FAP-H82Q6). Binding kinetics were studied in a 1× Kinetics buffer where the association was allowed for 200 seconds, followed by dissociation for 400 seconds. Sensor tips were regenerated using 10 mM Glycine pH 2.0. Data generated were referenced by subtracting a parallel buffer blank, the baseline was aligned with the y-axis, inter-step correlation by alignment against dissociation was performed, and the data were smoothed by a Savitzky-Golay filter in the data analysis software. The processed data were fitted using a 1:1 Langmuir binding model with R\hat{ }2 as a measurement of fitting accuracy. The Results are summarised in. Avidity was observed as FAP is naturally a dimeric antigen, and the limited detection by Octet with these molecules has been reached. Species cross-reactivity has been confirmed for all test samples.

[17] = target: T7, mouse LTBR on cells (4T1 tumor cell line; primary mouse lung fibroblasts) (mouse, UniProt P50284 31-415); assay: cell-based or functional assay
[18] = target: T7, mouse LTBR on cells (4T1 tumor cell …); assay: cell-based or functional assay; remark: listed apart in the source

T1 sequence (P36941 31-435): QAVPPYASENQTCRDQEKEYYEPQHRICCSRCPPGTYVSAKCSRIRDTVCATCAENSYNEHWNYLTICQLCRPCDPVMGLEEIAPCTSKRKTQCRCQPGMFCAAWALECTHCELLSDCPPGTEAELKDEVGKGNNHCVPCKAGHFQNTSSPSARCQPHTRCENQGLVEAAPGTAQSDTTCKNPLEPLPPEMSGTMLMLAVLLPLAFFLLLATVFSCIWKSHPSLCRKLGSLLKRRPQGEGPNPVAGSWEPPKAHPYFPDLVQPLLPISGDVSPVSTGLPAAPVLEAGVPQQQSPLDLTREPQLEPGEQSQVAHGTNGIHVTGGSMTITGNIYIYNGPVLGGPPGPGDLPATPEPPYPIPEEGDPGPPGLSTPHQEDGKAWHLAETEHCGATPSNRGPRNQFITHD
T7 sequence (P50284 31-415): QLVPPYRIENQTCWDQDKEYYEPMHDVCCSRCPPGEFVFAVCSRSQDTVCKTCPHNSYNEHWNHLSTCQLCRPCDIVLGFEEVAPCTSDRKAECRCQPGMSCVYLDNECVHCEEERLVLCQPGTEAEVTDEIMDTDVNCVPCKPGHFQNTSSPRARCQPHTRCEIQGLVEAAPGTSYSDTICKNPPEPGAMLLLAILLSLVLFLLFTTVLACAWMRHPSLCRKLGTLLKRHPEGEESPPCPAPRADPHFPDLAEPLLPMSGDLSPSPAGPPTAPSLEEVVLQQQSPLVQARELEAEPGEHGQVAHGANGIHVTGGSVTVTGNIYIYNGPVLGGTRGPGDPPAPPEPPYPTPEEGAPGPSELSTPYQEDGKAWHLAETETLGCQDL
T5 sequence (P36941 31-227 limits assumed): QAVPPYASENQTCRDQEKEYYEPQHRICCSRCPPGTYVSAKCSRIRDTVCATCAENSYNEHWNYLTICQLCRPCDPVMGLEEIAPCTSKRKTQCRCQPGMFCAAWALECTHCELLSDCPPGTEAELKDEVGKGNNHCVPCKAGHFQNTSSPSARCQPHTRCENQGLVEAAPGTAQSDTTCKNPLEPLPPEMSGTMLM
Chain of Human LTBR (Acro), recombinant protein (P36941 31-227 limits assumed): as above
Chain of cynomologus recombinant LTBR (Octet, Example 4.8) (P36941 other isoform, or with tags, fused parts or gaps limits assumed): as the sequence (P36941 31-227 limits assumed) above, with A2V, A7G, Q24R, I45S, N163D, K181R, L184S, P186S counted along it
T3 sequence (P36941 other isoform, or with tags, fused parts or gaps limits assumed): as the sequence (P36941 31-227 limits assumed) above, with A2V, A7G, Q24R, I45S, N163D, K181R, L184S, P186S counted along it

B1: Clone 4.7 (bispecific antibody, human IgG1, kappa, L234A L235A)
heavy 1: not shown
heavy 2: QVQLVQSGAEVKKPGASVKVSCKASGYTFTGYYMNWVRQAPGQGLEWMGWINPQSGDVNFAQKFQGRVTMTRDTSISTAYMELSRLRSDDTAVYYCARQFRGYSYGYGMDVWGQGTTVTVSSASTKGPSVFPLAPSSKSTSGGTAALGCLVKDYFPEPVTVSWNSGALTSGVHTFPAVLQSSGLYSLSSVVTVPSSSLGTQTYICNVNHKPSNTKVDKKVEPKSCDKTHTCPPCPAPEAAGGPSVFLFPPKPKDTLMISRTPEVTCVVVDVSHEDPEVKFNWYVDGVEVHNAKTKPREEQYNSTYRVVSVLTVLHQDWLNGKEYKCKVSNKALPAPIEKTISKAKGQPREPQVCTLPPSRDELTKNQVSLSCAVKGFYPSDIAVEWESNGQPENNYKTTPPVLDSDGSFFLVSKLTVDKSRWQQGNVFSCSVMHEALHNHYTQKSLSLSPG
light: not shown
notes: FAP:LTBR 2:1 heterodimer of FAP mAb (clone 3.7) with C terminal fused LTBR scFv (clone 2.3), human IgG1 LALA
HepG2 Reporter assay, HepG2:FAP-CHO-K1 Co-culture EC50 [1]: 0.023 nM
CCL19 upregulation, HCC1187:CAF Co-culture EC50 [2]: 0.073 nM
ICAM1 upregulation in CAFs monoculture assay EC50 [3]: 0.012 nM
chemokine (CCL5) induction in RPMI-7951 EC50 [4]: 0.0096 nM
HCC-1187:RPMI7951 (cis-activation) co-culture assay CCL5 read-out EC50 [5]: 0.01 nM
EC50 [6]: 6 nM
EC50 [7]: 0.34 nM
Kd [8]: 1.8 nM
Kd [9]: 0.4 nM
Kd [10]: 0.16 nM
Kd [11]: 0.15 nM

B2: Clone 4.1 (bispecific antibody, human IgG1, kappa, L234A L235A)
heavy 1: not shown
heavy 2: QLQLQESGPGLVKPSETLSLTCTVSGGSISSSTYYWGWIRQPPGKGLEWIGSIFYSGNTYYNPSLKSRVTISVDTSKNHFSLKLSSVTAADTAVYYCAREIIEPRPGYFDYWGQGTLVTVSSASTKGPSVFPLAPSSKSTSGGTAALGCLVKDYFPEPVTVSWNSGALTSGVHTFPAVLQSSGLYSLSSVVTVPSSSLGTQTYICNVNHKPSNTKVDKKVEPKSCDKTHTCPPCPAPEAAGGPSVFLFPPKPKDTLMISRTPEVTCVVVDVSHEDPEVKFNWYVDGVEVHNAKTKPREEQYNSTYRVVSVLTVLHQDWLNGKEYKCKVSNKALPAPIEKTISKAKGQPREPQVCTLPPSRDELTKNQVSLSCAVKGFYPSDIAVEWESNGQPENNYKTTPPVLDSDGSFFLVSKLTVDKSRWQQGNVFSCSVMHEALHNHYTQKSLSLSPG
light: not shown
notes: FAP:LTBR 1:1 heterodimer of LTBR VHH (clone 1.6) paired with FAP Fab (clone 3.5), human IgG1 LALA
HepG2 Reporter assay, HepG2:FAP-CHO-K1 Co-culture EC50 [1]: 0.07 nM
CCL19 upregulation, HCC1187:CAF Co-culture EC50 [2]: 0.055 nM
ICAM1 upregulation in CAFs monoculture assay EC50 [3]: 0.026 nM
chemokine (CCL5) induction in RPMI-7951 EC50 [4]: 0.09 nM
HCC-1187:RPMI7951 (cis-activation) co-culture assay CCL5 read-out EC50 [5]: 0.052 nM
HCC-1187:RPMI7951 (trans-activation) co-culture assay, CCL19 Read-out EC50 [5]: 0.084 nM
EC50 [12]: 29 nM
EC50 [13]: 0.28 nM
Kd [14]: 4 nM
Kd [15]: 7.7 nM
Kd [16]: 0.182 nM

B3: Clone 4.14 (antibody, V domains shown)
VH: QVQLKESGPGLVQPSQTLSLTCTVSGFSLTTYSVHWVRQHSGKSLEWMGRMWTDGDTSYNSAFTSRLSISRDTSKSQVFLKMNSLQTEDTGTYYCARGYWYFDFWGPGTMVTVSS
VL: DVQMTQSPSYLAASPGESVSIRCKASKSISNNLAWYQEKPGKANKLLIHSGSTLQSGTPSRFSGSGSGTDFTLTIRSLEFEDFAVYYCQQYNEYPYTFGAGTKLELK
4T1:CHO-FAP co-culture CCL5 read-out EC50 [17]: 0.28 nM
4T1:CHO-FAP co-culture CCL5 read-out EC50, 4.14 + cross-linking antibody [17]: 0.096 nM
4T1 monoculture CCL5 read-out EC50 [17]: 0.47 nM
4T1 monoculture CCL5 read-out EC50, 4.14 + cross-linking antibody [17]: 0.14 nM
ICAM1 induction in PMLF EC50 [18]: 0.063 nM
ICAM1 induction in PMLF EC50, 4.14 + cross-linking antibody [18]: 0.021 nM
